One data set addresses cathepsin D (Homo sapiens, UniProt P07339). Briefly: Cathepsin D inhibition, steady-state hydrolysis of chromophoric substrate; active site titration. The data set is classed as biochemical. As for the experimental part: Residual activity is expressed as percent of control activity in samples containing no inhibitor.
The kinetics of binding of equistatin to cathepsin D was performing using a synthetic substrate which contains a chromophore, such as a nitrophenylalanine residue, in the P1′ position. The assay sensitivity, afforded by H-Pro-Thr-Glu-Phe*Nph-Arg-Leu-OH (SEQ ID NO:8) as substrate, alowed us to use 6.4 nM concentration of the enzyme as a minimal concentration in the test.

The subject of data set [1] is endoprotease activity of Colorado potato beetle larval gut extracts. Briefly: Narrow spectrum endoprotease activity of Colorado potato beetle gut extract, Z-Arg-Arg-pNA. The data set is classed as biochemical, Leptinotarsa decemlineata. From the text: Guts of final instar Colorado potato beetle larvae reared on methyl jasmonate induced plants were isolated and extracted essentially as described (Bolter and Jongsma, J. Insect Physiol. 41: 1071-1078). In these gut extracts the proteases that are sensitive to the protease inhibitors of potato are already complexed. The residual protease activity is composed of potato protease-inhibitor-insensitive proteases which were induced in response to the methyl jasmonate induced potato inhibitors. These proteases are the proteases that render the beetle larvae insensitive to protease inhibitor defense of the potato plant. Wle tested a broad range of different cysteisie protease inhibitors for activity specifically against these induced potato protease inhibitor-insensitive cysteine protesses. Nearly all of these inhibitors were purified at the Jozef Stefan Institute in Slovenia. Testing their potential against Colorado potato beetle was done using both general protein substrates (azocasein, table 2) as well as specific synthetic substrates (L-Arg-pNA, table 3; pGlu-Phe-Leu-pNA, table 4; Z-Phe-Arg-pNA, table 5; Z-Arg-Arg-pNA, table 6). In specific cases inhibitors were tested at two concentrations, eauimolar and in excess to the protease, in order to obtain an indication of the tightness of the complex. […] Importantly, this class of inhibitors was capable of inhibiting nearly all general cysteine protease activity. The equistatin peptide molecule and a functional derivative thereof were not very active against the aminopeptidase-like cysteine protease activity. […] The best combination of inhibitors for full toxicity against the Colorado potato beetle would therefore be a combination of equistatin or p41 invariant chain fragment and stefin-like inhibitors.

In another data set the test system is thrips protease activity. Kind of data set: Protease activity of adult western flower thrips extract, FITC-hemoglobin. The class given is biochemical, Frankliniella occidentalis. Details: inhibition of protease activity: concentration or dose not given beside the values. On the procedure:
Adult western flower thrips (Frankliniella occidentalis) and leafmirer flies (Liriomyza trifolii) adult were harvested from a culture maintained on chrysanthemum plants and complete thrips and flies were homogenized in extraction on buffer (200 mM β-alanine-HCl, pH 3.5) in a volume of 5 times the weight of the insects. The buffer pH was at the previously determined pH optimum of protease activity towards hemoglobin. Final instar Colorado potato beetle larvae maintained on potato plants as described in example 5 were checked for gut aspartic protease activity by preparing a total gut extract in pH 3 buffer which is optimal for Colorado potato beetle aspartic proteases (200 mM glycine, pH 3). Guts were homogenized in 100 μl buffer per gut. Third instar western corn rootworm larvae maintained on corn roots were used to remove the guts. Ten guts were homogenized in 100 μl water and spinned twice to remove insoluble material. Two types of buffers were used in the enzymatic assay. One with a pH presumably favoring cysteine proteases (50 mM MES, pH 6.5; 0.6 mg/ml L-cysteine) and one for detecting aspartic proteases (200 mM glycine, pH 3). Supernatants were stored at −20° C.
2 μl gut extract was combined with 2 μl inhibitor (2 mM pepstatin in methanol, 4 mM E64 in water, 2 mg/ml recombinant equistatin in water. The concentration of the other proteinaceous inhibitors was not known exactly). Appropriate buffers were added to a final volume of 100 μl. After 15′ preincubation 20 μl substrate (5 mg/ml FITC-hemoglobin) was added and incubated for 30-45 min at 37 C.
Reaction was stopped by the addition of 100 μl 10% TCA. Tubes were centrifuged and 100 μl supernatant mixed with 100 μl 10 N NaOH was measured on a fluorimeter for the extent of hemoglobin hydrolysis. Measurements were done in duplicate on one (thrips, leafminer and western corn rootworm), or three (Colorado potato beetle) different gut extracts and varied by a maximum of +/−5%.

The test system of another data set is thrips females. Briefly: Oviposition rate of thrips females in Murai cages. The data set is classed as in vivo, Frankliniella occidentalis. On the procedure:
A sample of 142 μM recombinant equistatin purified as described in example 4 was assayed for activity towards thrips. Sample was acidified with HCl to pH 3 to stabilize the equistatin protein. Controls contained acidified water or 2.5 mg/ml BSA dissolved in acidified water. The oviposition rate of thrips females was assayed using so-called Murai cages. Briefly, perspex tubes closed on side with a fine gauze were inoculated with 10 females and bee pollen. Tubes were closed with parafilm and 300 μl fluid was placed on top of the parafilm. A second layer of parafilm enclosed the fluid. Pollen and sample fluid were replaced every day for two days. Eggs deposited in the liquid sample were counted on day 2.

Data set [2] has as its system Colorado potato beetle larvae. Kind of data set: Toxicity of equistatin painted on potato leaves towards Colorado potato beetle larvae. The class given is in vivo, Leptinotarsa decemlineata. As for the experimental part:
Potato tubers of cultivar Surprise (Solanum tuberosum) were sprouted. Sprouted tubers were planted in 1 l pots and grown for 3-4 weeks at a 22/18° C., 16/8 hr day night rhythm. Plants 10-15 cm high were placed in glass jars together with a paper wick on which 2 ul methyl jasmonate was pipeted. Jars were sealed immediately with parafilm and placed in a climate chamber of 30° C. with continuous light. Control plants were placed in a chamber of 25° C. with a 16-8 hr day night rhythm. After one day at 30° C. plants were taken from the jars and placed in the same chamber as the control. Plants were used on day 3. Freshly treated plants were used for each subsequent day of feeding. […] The top meristems were removed from the plants and painted on both sides with a 175 μM solution of recombinant equistatin in 0.3% agar obtained by mixing 1:1 a stock solution of 350 μM equistatin with 0.6% water agar. Controls were painted with 0.3% water agar. The agar solution was applied at a concentration of 30 μl/cm2.
The final concentration on the leaf was estimated to be 70 μM which is equivalent to 1.4 mg/g leaf. Painted leaves were placed in a tube containing 0.4% agar and out on top of a filterpaper inside a petridish. 21-26 newly hatched Colorado potato beetle larvae were placed on the leaves and the petridish was put in an incubator set at 28° C. Everyday fresh painted leaves replaced the old ones.

The mark [3] stands for this setting: recombinant equistatin on MeJa treated plants.
The mark [4] stands for this setting: recombinant equistatin on control plants.
The mark [5] stands for this setting: recombinant equistatin on methyl jasmonate (MeJa) treated plants.

By Ki is commonly meant the dissociation constant of the complex between target and ligand, obtained from inhibition or displacement.

Sequence of cathepsin D (P07339 65-412, species assumed): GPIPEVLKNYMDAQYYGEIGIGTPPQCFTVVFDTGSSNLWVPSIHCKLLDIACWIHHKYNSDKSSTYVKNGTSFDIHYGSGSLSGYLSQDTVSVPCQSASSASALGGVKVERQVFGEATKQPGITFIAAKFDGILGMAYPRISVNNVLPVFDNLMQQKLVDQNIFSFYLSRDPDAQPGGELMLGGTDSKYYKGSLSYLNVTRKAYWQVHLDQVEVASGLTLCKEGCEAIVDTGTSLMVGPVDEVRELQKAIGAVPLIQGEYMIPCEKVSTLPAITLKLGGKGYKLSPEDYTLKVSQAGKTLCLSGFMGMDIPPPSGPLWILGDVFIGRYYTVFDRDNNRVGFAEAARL

B1: equistatin: cysteine/aspartic protease inhibitor from sea anemone Actinia equina with three type I repeated thyroglobulin domains; purified or recombinant from E. coli (protein)
chain: SLTKCQQLQASANSGLIGTYVPQCKETGEFEEKQCWGSTGYCWCVDEDGKEILGTKIRGSPDCSRRKAALTLCQMMQAIIVNVPGWCGPPSCKADGSFDEVQCCASNGECYCVDKKGKELEGTRQQGRPTCERHLSECEEARIKAHSNSLRVEMFVPECLEDGSYNPVQCWPSTGYCWCVDEGGVKVPGSDVRFKRPTC
modifications: left off: large carriers; small tags and cut ends
notes: purified or recombinant from E. coli
As for B1, in the data set with cathepsin D (cathepsin D, steady state velocity, chromophoric substrate), affinity was put at a Ki of 0.3 nM. Further, the “equistatin needed for the saturation of 1 mol of cathepsin D” value with cathepsin D (titration of cathepsin D with equistatin (FIG. 12)) is 1 mol. In data set [1] (equimolar), the “% of residual activity, equimolar” value was 20%. For the same molecule, the “% of residual activity, excess inhibitor” value in data set [1] (excess inhibitor) was −5%. Also, in the data set with thrips protease activity (thrips pH 3.5, equistatin purified from sea anemone), the residual protease activity came to 5%. Also, the “inhibition of protease activity” value in the data set with thrips protease activity (thrips, pH 3.5) amounted to 95%. For the same molecule, the “Oviposition rate, eggs per female per day” value with thrips females (142 μM recombinant equistatin, pH 3, eggs counted on day 2) worked out at 0.3 eggs per female per day. The “Oviposition rate, relative percentage” value with thrips females (relative to BSA diet = 100%) was 17%. Also, in data set [2] (setting [3]), the “percent mortality, day 1” value is 0%; the “percent mortality, day 2” value is reported as 23%; the “percent mortality, day 3” value amounted to 77%; the “percent mortality, day 4” value is given as 92%. For the same molecule, in data set [2] (setting [4]), the “percent mortality, day 1” value worked out at 0%; the “percent mortality, day 2” value was determined as 10%; the “Larval weight, day 3” value is given as 0.5 mg/larvae; the “percent mortality, day 3” value was determined as 52%. In data set [2] (setting [4]), the “Larval weight, day 4” value came to 0.7 mg/larvae and the “percent mortality, day 4” value is listed as 76%. Also, in data set [2] (setting [5]), the “Larval weight, day 3” value is on record as “n.g” and the “Larval weight, day 4” value is “n.g”.

The values above are taken from patent publication US6861578B1, “Method for plant protection against insects or nematodes by transformation with a nucleic acid encoding equistatin” (Plant Research International B.V., priority 1997, dated 2005).
